Laboratory results taken from article PMC10342849, “Feruloyl Esterase (LaFae) from Lactobacillus acidophilus: Structural Insights and Functional Characterization for Application in Ferulic Acid Production” (International Journal of Molecular Sciences, 2023).

B1: LaFae (Lactobacillus acidophilus NCFM) (protein)
chain: MSRITIERDGLTLVGDREEPFGEIYDMAILMHGFTANRNTPLLRQIADNLRDENVASVRFDFNGHGESDGAFEDMTVCNEIADAQKILEYVRTDPHVRNIFLVGHSQGGVVASMLAGLYPDIVKKVVLLAPAAQLKDDALNGDTQGATYNPEHIPAAIPFHGKKLGGFYLRTAQVLPIYEIAKHYTNPVSIIVGSNDQVVAPKYSKKYDEVYENSELHMVPDADHSFTGQYKDSAVDLTAEFLKPLF
notes: His6-tagged, pET-21a (BamHI/XhoI), E. coli BL21(DE3); dimer in solution; catalytic triad Ser106, Asp197, His225

How the values were obtained:
[1] = target: Feruloyl esterase (LaFae) from Lactobacillus acidophilus (Lactobacillus acidophilus); assay: SEC; gel filtration on HiPrep S-200R column in 20 mM Tris-HCl (pH 8.0), molecular weight from a standard curve of protein standards
[2] = target: Feruloyl esterase (LaFae) from Lactobacillus acidophilus (Lactobacillus acidophilus); assay: AUC; 20 mM Tris-HCl (pH 8.0), ProteomeLab XL-A, sedimentation profile at 280 nm analysed with SEDFIT
purified protein = substrate: CCCC(=O)Oc1ccc([N+](=O)[O-])cc1; assay: purified protein; assay type: biochemical, Lactobacillus acidophilus; settings: hydrolysis; His6-tagged enzyme

Molecule | stoichiometry N [1] | percent of the sample in the dimer peak [2] [%] | stoichiometry N [2] | Km (purified protein) [µM]
Feruloyl esterase (LaFae) from Lactobacillus acidophilus (enzyme) | 2 | 95.3 | 2 | 
B1 |  |  |  | 1160
